This experiment deals with SARS-CoV-2 spike protein S1 subunit (WIV4) (SARS-CoV-2 (isolate 2019-nCoV, WIV4)), P0DTC2. The following applies: remark: other sources report otherwise.

B1: scFv clone #26 (scFv)
scFv: QAVLTQAPSASGTLGQQVTISCSGTTSNIGRNTVNWYQHLPGTAPKLLIFVSNQRPSGVPDRFSGSKSGTSASLVISGLQSEDEADYYCGAWDDSLDGMLFGGGTKLTVLGSRGGGGSGGGGSGGGGSLEMAQVQLVQSGAEVKKPGASVKVSCKASGYTFTSYGISWVRQAPGQGLEWMGWISAYNGNTNYAQKLQGRVTMTTDTSTSTAYMELRSLRSDDTAVYYCARGYYGDLDPWGQGTLVTVSSTSGQAGQ
As usually defined, the IC50 is the concentration at which inhibition is half-maximal. Regarding B1, the IC50 was found to be 1.33 nM. This lies in the single-digit nanomolar range.

These data come from patent publication US20230141962A1.
